B1: ZNF277 (parent)
chain: ILREELQKQRLREILEQQQQERND

Variants of: B1
Assay: protein stability index of a GFP-peptide fusion (GPS, HEK-293T) (PSI 1-6); higher = more stable
Details: c terminus: a fixed tail appended
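Further: lentivirally expressed fusions sorted by FACS into six bins by GFP to DsRed ratio, PSI derived from sequencing read proportions per bin multiplied by bin number.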

Variant	protein stability index
ILREELQKQRLRERLEQQQQERND [I14R]	3.49
ILREELQKQRLREMLEQQQQERND [I14M]	4.3
ILREELQKQRLRECLEQQQQERND [I14C]	4.13
ILREELQKQRLREVLEQQQQERND [I14V]	4.25
ILREELQKQRLREHLEQQQQERND [I14H]	3.89
ILREELQKQRLREQLEQQQQERND [I14Q]	4.81
ILREELQKQRLREFLEQQQQERND [I14F]	3.5
ILREELQKQRLREYLEQQQQERND [I14Y]	4.34
ILREELQKQRLREELEQQQQERND [I14E]	4.85
ILREELQKQRLRENLEQQQQERND [I14N]	4.46
ILREELQKQRLREDLEQQQQERND [I14D]	5.07
ILREELQKQRLRELLEQQQQERND [I14L]	3.01
ILREELQKQRLRETLEQQQQERND [I14T]	4.84
ILREELQKQRLREPLEQQQQERND [I14P]	5.11
ILREELQKQRLREKLEQQQQERND [I14K]	3.53
ILREELQKQRLREALEQQQQERND [I14A]	5.04
ILREELQKQRLREGLEQQQQERND [I14G]	4.74
ILREELQKQRLREIDEQQQQERND [L15D]	4.77
ILREELQKQRLREICEQQQQERND [L15C]	4.62
ILREELQKQRLREIWEQQQQERND [L15W]	4.14
ILREELQKQRLREIIEQQQQERND [L15I]	4.48
ILREELQKQRLREIEEQQQQERND [L15E]	4.99
ILREELQKQRLREINEQQQQERND [L15N]	4.32
ILREELQKQRLREISEQQQQERND [L15S]	4.99

Variant	protein stability index
ILREELQKQRLREIFEQQQQERND [L15F]	4.22
ILREELQKQRLREIAEQQQQERND [L15A]	5.04
ILREELQKQRLREIHEQQQQERND [L15H]	5.11
ILREELQKQRLREIYEQQQQERND [L15Y]	4.18
ILREELQKQRLREIPEQQQQERND [L15P]	4.54
ILREELQKQRLREITEQQQQERND [L15T]	4.67
ILREELQKQRLREIMEQQQQERND [L15M]	4.03
ILREELQKQRLREIGEQQQQERND [L15G]	4.94
ILREELQKQRLREIKEQQQQERND [L15K]	4.37
ILREELQKQRLREIREQQQQERND [L15R]	4.82
ILREELQKQRLREIVEQQQQERND [L15V]	4.37
ILREELQKQRLREIQEQQQQERND [L15Q]	5.14
ILREELQKMRLREILEQQQQERND [Q9M]	4.32
ILREELQKSRLREILEQQQQERND [Q9S]	4.41
ILREELQKYRLREILEQQQQERND [Q9Y]	3.9
ILREELQKDRLREILEQQQQERND [Q9D]	4.98
ILREELQKNRLREILEQQQQERND [Q9N]	3.79
ILREELQKHRLREILEQQQQERND [Q9H]	5.05
ILREELQKWRLREILEQQQQERND [Q9W]	3.53
ILREELQKKRLREILEQQQQERND [Q9K]	4.42
ILREELQKIRLREILEQQQQERND [Q9I]	4.18
ILREELQKVRLREILEQQQQERND [Q9V]	4.15
ILREELQKLRLREILEQQQQERND [Q9L]	4.41
ILREELQKGRLREILEQQQQERND [Q9G]	4.05

Variant	protein stability index
ILREELQKTRLREILEQQQQERND [Q9T]	4.01
ILREELQKPRLREILEQQQQERND [Q9P]	4.52
ILREELQKFRLREILEQQQQERND [Q9F]	4.12
ILREELQKERLREILEQQQQERND [Q9E]	3.04
ILREELQKRRLREILEQQQQERND [Q9R]	4.41
ILREELQKCRLREILEQQQQERND [Q9C]	4.41
ILREELQKQRLREILMQQQQERND [E16M]	3.81
ILREELQKQRLREILRQQQQERND [E16R]	3.53
ILREELQKQRLREILPQQQQERND [E16P]	4.8
ILREELQKQRLREILIQQQQERND [E16I]	3.74
ILREELQKQRLREILGQQQQERND [E16G]	3.51
ILREELQKQRLREILLQQQQERND [E16L]	3.63
ILREELQKQRLREILTQQQQERND [E16T]	4.71
ILREELQKQRLREILFQQQQERND [E16F]	3.66
ILREELQKQRLREILAQQQQERND [E16A]	3.07
ILREELQKQRLREILNQQQQERND [E16N]	3.89
ILREELQKQRLREILDQQQQERND [E16D]	4.61
ILREELQKQRLREILWQQQQERND [E16W]	2.87
ILREELQKQRLREILVQQQQERND [E16V]	3.9
ILREELQKQRLREILQQQQQERND [E16Q]	3.77
ILREELQKQRLREILSQQQQERND [E16S]	4.04
ILREELQKQRLREILHQQQQERND [E16H]	3.87
ILREELQKQRLREILKQQQQERND [E16K]	3.83
ILREELQDQRLREILEQQQQERND [K8D]	4.43

Variant	protein stability index
ILREELQFQRLREILEQQQQERND [K8F]	4.38
ILREELQHQRLREILEQQQQERND [K8H]	4.41
ILREELQYQRLREILEQQQQERND [K8Y]	4.11
ILREELQWQRLREILEQQQQERND [K8W]	3.82
ILREELQPQRLREILEQQQQERND [K8P]	5.07
ILREELQAQRLREILEQQQQERND [K8A]	4.7
ILREELQSQRLREILEQQQQERND [K8S]	4.81
ILREELQRQRLREILEQQQQERND [K8R]	3.66
ILREELQIQRLREILEQQQQERND [K8I]	3.1
ILREELQEQRLREILEQQQQERND [K8E]	5.3
ILREELQVQRLREILEQQQQERND [K8V]	4.07
ILREELQTQRLREILEQQQQERND [K8T]	4
ILREELQMQRLREILEQQQQERND [K8M]	4.12
ILREELQQQRLREILEQQQQERND [K8Q]	4.98
ILREELQGQRLREILEQQQQERND [K8G]	4.82
ILREELQCQRLREILEQQQQERND [K8C]	3.96
ILREELQLQRLREILEQQQQERND [K8L]	3.63
ILREELQNQRLREILEQQQQERND [K8N]	4.53
ILREELQKQRLREILEAQQQERND [Q17A]	3.83
ILREELQKQRLREILENQQQERND [Q17N]	4.51
ILREELQKQRLREILEFQQQERND [Q17F]	3.87
ILREELQKQRLREILEIQQQERND [Q17I]	3.33
ILREELQKQRLREILEEQQQERND [Q17E]	4.82
ILREELQKQRLREILELQQQERND [Q17L]	4.29

Variant	protein stability index
ILREELQKQRLREILEDQQQERND [Q17D]	4.54
ILREELQKQRLREILECQQQERND [Q17C]	3.6
ILREELQKQRLREILEHQQQERND [Q17H]	4.38
ILREELQKQRLREILEMQQQERND [Q17M]	3.88
ILREELQKQRLREILEGQQQERND [Q17G]	4.25
ILREELQKQRLREILEVQQQERND [Q17V]	4.22
ILREELQKQRLREILEPQQQERND [Q17P]	4.2
ILREELQKQRLREILETQQQERND [Q17T]	4.16
ILREELQKQRLREILEWQQQERND [Q17W]	3.49
ILREELQKQRLREILESQQQERND [Q17S]	4.63
ILREELQKQRLREILERQQQERND [Q17R]	3.77
ILREELQKQRLCEILEQQQQERND [R12C]	4.45
ILREELQKQRLFEILEQQQQERND [R12F]	4.23
ILREELQKQRLTEILEQQQQERND [R12T]	5.29
ILREELQKQRLIEILEQQQQERND [R12I]	4.15
ILREELQKQRLKEILEQQQQERND [R12K]	4.6
ILREELQKQRLGEILEQQQQERND [R12G]	5.05
ILREELQKQRLYEILEQQQQERND [R12Y]	3.87
ILREELQKQRLLEILEQQQQERND [R12L]	4.36
ILREELQKQRLHEILEQQQQERND [R12H]	4.14
ILREELQKQRLDEILEQQQQERND [R12D]	5.8
ILREELQKQRLPEILEQQQQERND [R12P]	4.78
ILREELQKQRLMEILEQQQQERND [R12M]	4.58
ILREELQKQRLEEILEQQQQERND [R12E]	5.08

Variant	protein stability index
ILREELQKQRLWEILEQQQQERND [R12W]	3.67
ILREELQKQRLQEILEQQQQERND [R12Q]	4.72
ILREELQKQRLAEILEQQQQERND [R12A]	4.73
ILREELQKQRLVEILEQQQQERND [R12V]	4.41
ILREELQKQRLNEILEQQQQERND [R12N]	4.86
ILREELQKQRLREILEQKQQERND [Q18K]	3.72
ILREELQKQRLREILEQAQQERND [Q18A]	3.98
ILREELQKQRLREILEQDQQERND [Q18D]	4.46
ILREELQKQRLREILEQFQQERND [Q18F]	4.37
ILREELQKQRLREILEQIQQERND [Q18I]	2.52
ILREELQKQRLREILEQLQQERND [Q18L]	3.37
ILREELQKQRLREILEQEQQERND [Q18E]	4.93
ILREELQKQRLREILEQCQQERND [Q18C]	3.31
ILREELQKQRLREILEQGQQERND [Q18G]	4.57
ILREELQKQRLRPILEQQQQERND [E13P]	4.56
ILREELQKQRLRIILEQQQQERND [E13I]	4.06
ILREELQKQRLRRILEQQQQERND [E13R]	4.11
ILREELQKQRLRYILEQQQQERND [E13Y]	4.07
ILREELQKQRLRMILEQQQQERND [E13M]	4.01
ILREELQKQRLRGILEQQQQERND [E13G]	4.54
ILREELQKQRLRQILEQQQQERND [E13Q]	4.22
ILREELQKQRLRKILEQQQQERND [E13K]	4.22
ILREELQKQRLRFILEQQQQERND [E13F]	3.77
ILREELQKQRLRTILEQQQQERND [E13T]	4.58

Variant	protein stability index
ILREELQKQRLRNILEQQQQERND [E13N]	4.05
ILREELQKQRLRHILEQQQQERND [E13H]	4.46
ILREELQKQRLRLILEQQQQERND [E13L]	3.75
ILREELQKQRLRAILEQQQQERND [E13A]	3.74
ILREELQKQRLRVILEQQQQERND [E13V]	4.06
ILREELQKQRLRCILEQQQQERND [E13C]	3.76
ILREELQKQRLRSILEQQQQERND [E13S]	4.18
ILREELQKQILREILEQQQQERND [R10I]	3.41
ILREELQKQDLREILEQQQQERND [R10D]	5.47
ILREELQKQMLREILEQQQQERND [R10M]	3.58
ILREELQKQKLREILEQQQQERND [R10K]	4.59
ILREELQKQALREILEQQQQERND [R10A]	4.38
ILREELQKQTLREILEQQQQERND [R10T]	4.59
ILREELQKQLLREILEQQQQERND [R10L]	2.56
ILREELQKQSLREILEQQQQERND [R10S]	4.7
ILREELQKQNLREILEQQQQERND [R10N]	4.51
ILREELQKQWLREILEQQQQERND [R10W]	3.23
ILREELQKQCLREILEQQQQERND [R10C]	3.28
ILREELQKQVLREILEQQQQERND [R10V]	4.07
ILREELQKQYLREILEQQQQERND [R10Y]	4.3
ILREELQKQELREILEQQQQERND [R10E]	4.83
ILREELQKQGLREILEQQQQERND [R10G]	4.65
ILREELQKQFLREILEQQQQERND [R10F]	3.47
ILREELQKQHLREILEQQQQERND [R10H]	4.85

Variant	protein stability index
ILREELQKQPLREILEQQQQERND [R10P]	4.83
ILREELQKQRYREILEQQQQERND [L11Y]	4.58
ILREELQKQRCREILEQQQQERND [L11C]	4.71
ILREELQKQRTREILEQQQQERND [L11T]	4.66
ILREELQKQRRREILEQQQQERND [L11R]	4.37
ILREELQKQRFREILEQQQQERND [L11F]	4.09
ILREELQKQRVREILEQQQQERND [L11V]	2.73
ILREELQKQRMREILEQQQQERND [L11M]	4.91
ILREELQKQRAREILEQQQQERND [L11A]	4.83
ILREELQKQRNREILEQQQQERND [L11N]	4.76
ILREELQKQRDREILEQQQQERND [L11D]	4.8
ILREELQKQRWREILEQQQQERND [L11W]	3.94
ILREELQKQRPREILEQQQQERND [L11P]	4.38
ILREELQKQRSREILEQQQQERND [L11S]	4.68
ILREELQKQREREILEQQQQERND [L11E]	5.06
ILREELQKQRQREILEQQQQERND [L11Q]	5.05
ILREELQKQRHREILEQQQQERND [L11H]	4.94
ILREELQKQRGREILEQQQQERND [L11G]	5.22
ILREELQKQRIREILEQQQQERND [L11I]	4.52
ILREELQKQRKREILEQQQQERND [L11K]	4.31
